The values that follow come from patent US6399314B1, “Methods of detection of amyloidogenic proteins” (American Cyanamid Company, priority 1999, dated 2002).

Data set [1] has as its target T1, aggregated peptide (Aβ(1-40)) (Homo sapiens, UniProt P05067).
T1 construct: Aβ(1-40) was purchased from Anaspec (San Jose, Calif.); purchased Anaspec (San Jose, Calif.); host or cells: synthetic peptide
The data set is described as follows: Quenching of thioflavin fluorescence by titration with Congo red. It counts as binding. The conditions noted are these: for Mode of binding to aggregated peptide: Congo red and thioflavin together on aggregated peptide. The source says: In these experiments, thioflavin was complexed with aggregated peptide prior to titration with increasing amounts of Congo red. The resulting decrease in fluorescence intensity is due to energy transfer of the fluorescence emission of thioflavin to Congo red. Therefore, assays that rely on thioflavin alone are likely to generate false positives in primary assays, while spectroscopic assays described in this invention would identify the more promising inhibitors of amyloidogenesis.
(§1) Spectroscopic Assays. To determine the extent of aggregation, aliquots of the peptide were removed at various time intervals (up to nine hours), and diluted into PBS buffer-containing 10 μM thioflavin. The final concentrations of peptide and thioflavin in the fluorescence assay were 10 μM. The fluorescence intensities of the peptide-thioflavin complex were measured at excitation and emission wavelengths of 435 and 485 nm, respectively, after the reaction had equilibrated for five minutes. Fluorescence spectral scans were made using 435 nm excitation and 485 nm emission wavelengths using a SPEX™ fluorolog-2 spectrofluorometer (Instruments S.A.®, Jobin Yvon-Spex, Edison, N.J.). For the Congo red experiments, peptide-thioflavin complex was titrated with increasing concentrations of Congo red from 0.1 to 3.5 micromolar concentrations. The fluorescence intensity changes were measured at the above-mentioned spectral wavelengths. When fluorescence intensities were measured in a plate reader, the peptide was diluted into PBS buffer-containing 10 μM thioflavin, to a final volume of 100 μL.

Data set [2] deals with rat fetal (E18) hippocampal cultures. As to the kind of experiment: Neurotoxicity assay (LDH release). It counts as cell-based. The conditions noted are these: for Toxicity to neuronal cultures: 72 hour toxicity assay. The protocol: Neurotoxicity Assay. Peptide was aggregated according to the end points determined in the CD and fluorescence assay and applied to primary neuronal cell cultures to assess cytotoxicity of the aggregated peptide. The release of LDH was used to monitor cell viability in the presence of Aβ and Congo red.
Aβ(1-40) toxicity was assessed using eight day-in-vitro (DIV) rat fetal (E18) hippocampal cultures. The cells were cultured in 48-well dishes previously coated with […] 0.1 mg/ml of poly-L-lysine (100 μl/well) and, subsequently, with 100 μl/well of 5 μg/ml of mouse laminin. The cells were seeded at a density of 92,300 cells/well in a total volume of 500 μl of NEUROBASAL™ medium containing 1XB27 supplement, 5% heat inactivated and qualified fetal bovine serum, 0.5 mM glutamine, 50 μ/ml penicillin, and 0.05 mg/ml streptomycin, and were initially placed in humidified 5% CO2 in air. After twenty-four hours, the medium was replaced with fresh medium lacking the penicillin, streptomycin, and fetal bovine serum and the cultures were thereafter maintained in air containing 5% CO2 and 9% O2. Fresh medium was substituted into each well on day five. On the seventh day in vitro, the medium was replaced with antioxidant free B27 supplemented medium lacking the penicillin, streptomycin, and fetal bovine serum. The toxicity test was initiated on the eighth day in vitro by substituting into each well 500 μl of the medium used on day seven (as the control treatment) or an experimental solution prepared with the final (control) medium. Each experimental solution was tested on cultures contained in five wells. Toxicity was assessed on the eleventh day in vitro using the lactic acid dehydrogenase (LDH; Sigma 340-UV) assay. Aggregated peptide was diluted five-fold to a final concentration of 10 uM, for the toxicity assays. Complexes of Congo red with preformed aggregates and those formed in co-aggregates were tested in the cellular assays along with aggregated peptide in vehicle controls.
(LDH in the medium is a marker of cell lysis.)

The target in the next data set is T2, β-amyloid protein 1-40 (Homo sapiens, UniProt P05067).
T2 construct: Aβ (1-40) was dissolved in 100% hexafluoroisopropanol
The data set is described as follows: Fluorescence spectroscopy of Congo red complexes with amyloid peptide. In kind it is binding. The source says: 3. Fluorescence spectroscopy was used to differentiate complexes of Congo red. Congo red binds to preformed fibrils as well as to intermediate aggregate forms of the amyloid polypeptide. […] The fluorescence excitation spectrum of Congo red in the aggregate-bound state is also red shifted relative to the free form of the […]. Changes in the fluorescence properties of Congo red are dependent on the aggregated state of the […]. The differences in the observed spectral characteristics of the coaggregates and complexes of the fibrillar polypeptide with Congo red are due to the differences in the relative hydrophobicity of the binding sites and to the number of bound Congo red molecules in the complexes with preformed fibrils and coaggregates.
The fluorescence emission spectra of complexes of Congo red were obtained after diluting the peptide fivefold into a buffered solution. Congo red was added to freshly diluted fibrillar peptide and the fluorescence spectrum was scanned at a final concentration of 10 μM of peptide. The concentrations of peptide and Congo red in the fluorescence assay were 10 μM and 8.6 μM respectively. The differences in the fluorescence intensities and emission wavelengths of the coaggregates and preformed aggregate-complexes, were due to the relative differences in the hydrophobicity of the binding sites in the two instances.

Another data set has as its target T3, Aβ (1-40) (Homo sapiens, UniProt P05067).
T3 construct: Aβ (1-40) was dissolved in 100% hexafluoroisopropanol
As to the kind of experiment: CD spectroscopy of peptide aged in the presence of Congo red (coaggregates). It counts as biochemical. As to conditions: far-UV CD. From the text: Circular Dichroism Spectroscopy. Conformational change of the peptide from the random coil to the β-sheet form, during aging, was monitored using changes to the molar ellipticity of the peptide at 200, 218, or 225 nm. This assay was also used to determine if the changes in the CD spectra occurred concurrently with the changes in the fluorescence spectra of thioflavin. The CD spectrum of the peptide was scanned at various time points to correlate the formation of thioflavin-binding macromolecular assemblies with the appearance of β-sheet conformation.
CD spectra were recorded on a JASCO™ spectropolarimeter model J715 (Jasco, Easton, Md.) at room temperature in a 0.1 cm pathlength cell. Typically, the peptide samples were aliquoted at various time intervals for fluorescence and the CD spectra were scanned using the remaining solution. The CD spectra of the peptide were recorded in the far-UV between 190-260 nm. The spectral results are expressed as deg.[…].dmol^−1.
Amyloid peptide (Aβ) was aged in the absence and presence of Congo red as described below: Aβ (1-40) was dissolved in 100% hexafluoroisopropanol to produce a final concentration of 200 or 400 μM. To aid dissolution of peptide, the solution was sonicated briefly, for about five seconds. An appropriate volume of the peptide solution was transferred to an amber vial and the solvent was evaporated under a stream of nitrogen. […]

Data set [3] in a line: Thioflavin fluorescence assay of the extent of aggregation of Aβ(1-40) in different buffers/media. In kind it is physicochemical. Further details: key to Percent Aggregation in HEPES: ++ indicates aggregates were formed but not quantitated because end point was not reached. The conditions noted are these: rotary shaker 500 rpm.
Excerpt: Fluorescence Spectroscopy. Thioflavin binds amyloid fibrils to induce a characteristic hyperchromic fluorescence shift in the spectrum (LeVine, J. Exp. Clin. Invest., 2:1-6, 1995). The induced fluorescence due to thioflavin is specific for amyloid β-pleated fibrils, but not for other β-sheet structures or for the soluble oligomeric forms of the peptide. Free thioflavin is a weak fluorophore with an excitation maximum at 330 nm. Upon binding to the amyloid fibrils, the fluorescence of thioflavin is enhanced with a red shift in the excitation spectrum by 100 nm, relative to the free form. We have used the increase in fluorescence intensity at excitation and emission wavelengths of 440 nm and 485 nm, respectively, to characterize the aggregation event.
as §1
Preparation ofAmyloid Peptide. Aβ(1-40) was purchased from Anaspec (San Jose, Calif.) and its chemical purity was verified using reverse phase HPLC, ESI-MS and protein sequencing methods. The lyophilized peptide was dissolved in hexafluoroisopropanol (HFIP) solvent to aid in disaggregation of peptide. Peptide in HFIP solvent, was stored at −80° C. Prior to use, peptide solution was thawed and the solvent was evaporated under a stream of nitrogen. The peptide was dissolved in buffer to obtain a concentration of 50 μM, sonicated approximately twenty to forty seconds, and then vortexed briefly, approximately five seconds or less, to aid dissohltion of peptide. To determine the effects of media on the rates of aggregation, peptide was dissolved in one of the following buffers: PBS, 50 mM HEPES™ or in NEUROBASAL™ medium. Peptide solutions were dispensed into microtiter plates at a final concentration of […] in 100 μL. Aggregation was initiated by shaking plates continuously in a rotary shaker.

T1 sequence (P05067 672-711 limits assumed): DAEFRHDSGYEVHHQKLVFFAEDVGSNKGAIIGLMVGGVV
T2 sequence (P05067 672-711 limits assumed): as above
T3 sequence (P05067 672-711 limits assumed): as above

Consider `Nc1c(/N=N/c2ccc(-c3ccc(/N=N/c4cc(S(=O)(=O)[O-])c5ccccc5c4N)cc3)cc2)cc(S(=O)(=O)[O-])c2ccccc12.[Na+].[Na+]` [Congo red], for which the “Mode of binding to aggregated peptide” value in data set [1] is listed as “non-competitively”. Besides, in data set [1] (free thioflavin), the “Quenching of fluorescence of free thioflavin” value is 50%. In addition, the “Quenching of fluorescence of peptide-bound thioflavin” value in data set [1] (peptide-bound thioflavin, Congo red 0.1 to 3.5 micromolar) is recorded as “greater than one order of magnitude”. In addition, the “Effect on toxicity of Aβ” value in data set [2] (Congo red complexed with preformed aggregates and in co-aggregates) was “attenuates the toxicity”. In data set [2] (hippocampal cultures, LDH release), the “Neuroprotection of cell cultures exposed to amyloid peptide” value is recorded as “neuroprotective”. Further, the “Fluorescence enhancement relative to the free form” value at β-amyloid protein 1-40 (Congo red co-aggregated with the amyloid polypeptide) is “eight-fold”; on β-amyloid protein 1-40 (complex between preformed fibrils and Congo red), “two-fold”. Further, the “Effect on aggregation rate of the peptide” value at Aβ (1-40) is on record as “slowed down”.

Turning to `Cc1ccc2c(c1)sc(-c1ccc(N(C)C)cc1)[n+]2C.[Cl-]` [thioflavin, Thioflavin T], in data set [1], the “Mode of binding to aggregated peptide” value was “non-competitively”.

On to “Aβ (1-40): synthetic β-amyloid peptide corresponding to the first 40 amino acids of Aβ, purchased from Anaspec”, for which the “Percent Aggregation in HEPES” value in data set [3] (aggregation time 0 hr) was 0%; in data set [3] (aggregation time 1 hr) it was 0%; in data set [3] (aggregation time 2 hr) it was 0%; in data set [3] (aggregation time 4 hr) it was “++”. In addition, the “Percent Aggregation in PBS” value is on record as 0% in data set [3] (aggregation time 0 hr), 0% in data set [3] (aggregation time 1 hr), 51% in data set [3] (aggregation time 2 hr) and 100% in data set [3] (aggregation time 4 hr). Also, the “Percent Aggregation in NEUROBASAL Medium” value in data set [3] (aggregation time 0 hr, relative to thioflavin/Aβ fluorescence at 0 and 4 hr) came to 0%; in data set [3] (aggregation time 1 hr), 0%; in data set [3] (aggregation time 2 hr) it was 76%; in data set [3] (aggregation time 4 hr) it was 100%. In addition, the “Toxicity to neuronal cultures” value in data set [2] (aggregated peptide (aged for four hours)) is listed as “toxic”; in data set [2] (fresh peptide), “non-toxic”.
